Article PMC9728965, “Stomatal CO2/bicarbonate sensor consists of two interacting protein kinases, Raf-like HT1 and non-kinase-activity requiring MPK12/MPK4” (Science Advances, 2022)

T1: His-HT1 (high leaf temperature 1, Raf-like protein kinase), wild type (Arabidopsis thaliana, UniProt Q2MHE4 1-390)
T1 construct: HT1 protein kinase of Arabidopsis thaliana; UniProt Q2MHE4 is printed as the 'long form of HT1' used for the AlphaFold2 model; Expressed from pET30a(+); source: E. coli, purified (Ni resin beads); not shown: His tag, N-terminal, kept
T1 sequence (looked up): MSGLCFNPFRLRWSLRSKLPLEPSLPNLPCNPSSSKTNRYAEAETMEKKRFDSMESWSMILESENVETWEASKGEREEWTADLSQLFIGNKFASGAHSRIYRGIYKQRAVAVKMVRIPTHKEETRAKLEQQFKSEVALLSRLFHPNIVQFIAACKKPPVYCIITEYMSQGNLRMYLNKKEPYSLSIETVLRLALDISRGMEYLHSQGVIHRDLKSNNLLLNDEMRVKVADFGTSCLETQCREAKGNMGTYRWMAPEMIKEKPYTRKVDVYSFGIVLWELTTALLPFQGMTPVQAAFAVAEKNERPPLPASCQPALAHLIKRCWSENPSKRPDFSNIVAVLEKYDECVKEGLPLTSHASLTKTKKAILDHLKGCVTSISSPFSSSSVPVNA

T2: His-HT1-R173Q (Arabidopsis thaliana, UniProt Q2MHE4 1-390, R173Q)
T2 construct: HT1 protein kinase of Arabidopsis thaliana with R173Q (dominant allele from an EMS screen); As m1 with the point mutation; source: E. coli, purified (Ni resin beads); not shown: His tag, N-terminal, kept
T2 sequence (looked up): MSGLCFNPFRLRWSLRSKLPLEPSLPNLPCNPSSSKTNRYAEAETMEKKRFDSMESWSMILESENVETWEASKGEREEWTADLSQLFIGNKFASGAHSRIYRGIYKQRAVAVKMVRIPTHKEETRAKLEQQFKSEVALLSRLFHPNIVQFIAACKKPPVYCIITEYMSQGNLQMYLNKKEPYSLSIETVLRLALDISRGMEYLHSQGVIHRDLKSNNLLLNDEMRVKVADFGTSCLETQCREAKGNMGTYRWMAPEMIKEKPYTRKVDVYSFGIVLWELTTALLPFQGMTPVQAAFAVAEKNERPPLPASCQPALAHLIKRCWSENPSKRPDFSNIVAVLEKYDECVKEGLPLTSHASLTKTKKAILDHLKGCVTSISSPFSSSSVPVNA


Key:
[1] = molecular target: T1, His-HT1 (high leaf temperature 1, …); test: pull-down; GST-MPK on glutathione Sepharose 4B beads, His-HT1 as prey; 5 ug of each protein in 200 ul of 50 mM tris-HCl pH 7.5, 150 mM NaCl, 0.1% Triton X-100, 1 mM DTT; 20 mM NaHCO3 or 20 mM NaCl (control) in all buffers including washes; room temperature; immunoblot with anti-GST and anti-His; settings: both partners purified
His-HT1-R173Q = molecular target: T2, His-HT1-R173Q; test: as above; settings: both partners purified

Row | binding result [1] | binding result (His-HT1-R173Q) | Binder
1 | binds | binds | GST-MPK4 (mitogen-activated protein kinase 4) (enzyme, Arabidopsis thaliana, UniProt Q39024 1-376, looked up, MPK4, MAP kinase of Arabidopsis thaliana; UniProt Q39024 printed for the model; Expressed from pGEX-6P-1; source: E. coli, purified (glutathione Sepharose beads); not shown: GST, N-terminal, kept) MSAESCFGSSGDQSSSKGVATHGGSYVQYNVYGNLFEVSRKYVPPLRPIGRGAYGIVCAATNSETGEEVAIKKIGNAFDNIIDAKRTLREIKLLKHMDHENVIAVKDIIKPPQRENFNDVYIVYELMDTDLHQIIRSNQPLTDDHCRFFLYQLLRGLKYVHSANVLHRDLKPSNLLLNANCDLKLGDFGLARTKSETDFMTEYVVTRWYRAPELLLNCSEYTAAIDIWSVGCILGETMTREPLFPGKDYVHQLRLITELIGSPDDSSLGFLRSDNARRYVRQLPQYPRQNFAARFPNMSAGAVDLLEKMLVFDPSRRITVDEALCHPYLAPLHDINEEPVCVRPFNFDFEQPTLTEENIKELIYRETVKFNPQDSV
2 | binds | – | GST-MPK12 (mitogen-activated protein kinase 12) (enzyme, Arabidopsis thaliana, UniProt Q8GYQ5 1-372, looked up, MPK12, MAP kinase of Arabidopsis thaliana; UniProt Q8GYQ5 printed for the model; Expressed from pGEX-6P-1; source: E. coli, purified (glutathione Sepharose beads); not shown: GST, N-terminal, kept) MSGESSSGSTEHCIKVVPTHGGRYVQYNVYGQLFEVSRKYVPPIRPIGRGACGIVCAAVNSVTGEKVAIKKIGNAFDNIIDAKRTLREIKLLRHMDHENVITIKDIVRPPQRDIFNDVYIVYELMDTDLQRILRSNQTLTSDQCRFLVYQLLRGLKYVHSANILHRDLRPSNVLLNSKNELKIGDFGLARTTSDTDFMTEYVVTRWYRAPELLLNCSEYTAAIDIWSVGCILGEIMTGQPLFPGKDYVHQLRLITELVGSPDNSSLGFLRSDNARRYVRQLPRYPKQQFAARFPKMPTTAIDLLERMLVFDPNRRISVDEALGHAYLSPHHDVAKEPVCSTPFSFDFEHPSCTEEHIKELIYKESVKFNPDH
